{"source": "paper PMC4428445", "about": "(Frontiers in Molecular Biosciences, 2015)", "binders": {"B1": {"name": "W87R mutant of JosK117-only (domain or fragment, UniProt P54252 1-182, looked up)", "chain": "MESIFHERQEGSLCAQHCLNNLLQGEYFSPVELSSIAHQLDEEERMRMAEGGVTSEDYRTFLQQPSGNMDDSGFFSIQVISNALRVRGLELILFNSPEYQRLRIDPINERSFICNYKEHWFTVRRLGRQWFNLNSLLTGPELISDTYLALFLAQLQQEGYSIFVVRGDLPDCEADQLLQMIR", "notes": "ataxin-3, N-terminal Josephin domain, amino acids 1-182; K8, 85, 125, 128 and 166 mutated to arginine, and W87R (site 2); also called JosK117-onlyW87R; JosK117-only W87R; source: recombinant; mutant prepared with QuickChange Site-Directed Mutagenesis kit"}}, "target": "T1, Recombinant wild-type human ubiquitin (human, UniProt P0CG48 1-76)", "T1 construct": "ubiquitin, human, wild type; C-terminal residue G76; 15N labelled in some NMR experiments; In the rows of assays a1, a4 and a5 it is covalently linked by G76 to K117 of m1 (the conjugate is m3); also called free ubiquitin; mono-ubiquitin; source: recombinant, purified by anion exchange followed by gel filtration", "assay": "NMR titration; 15N ubiquitin (50 μM) titrated with unlabeled JosK117-onlyW87R or its mono-ubiquitinated form to a maximum of 2 equivalents; 20 mM Na phosphate pH 6.5, 2 mM DTT, 25°C", "conditions": "both partners purified"}
{"binder": "B1", "values": [{"measurement": "binding result", "value": "binds"}]}
